The target in experiment [1] is T1, human C4b (human) (UniProt P0C0L5).
T1 sequence: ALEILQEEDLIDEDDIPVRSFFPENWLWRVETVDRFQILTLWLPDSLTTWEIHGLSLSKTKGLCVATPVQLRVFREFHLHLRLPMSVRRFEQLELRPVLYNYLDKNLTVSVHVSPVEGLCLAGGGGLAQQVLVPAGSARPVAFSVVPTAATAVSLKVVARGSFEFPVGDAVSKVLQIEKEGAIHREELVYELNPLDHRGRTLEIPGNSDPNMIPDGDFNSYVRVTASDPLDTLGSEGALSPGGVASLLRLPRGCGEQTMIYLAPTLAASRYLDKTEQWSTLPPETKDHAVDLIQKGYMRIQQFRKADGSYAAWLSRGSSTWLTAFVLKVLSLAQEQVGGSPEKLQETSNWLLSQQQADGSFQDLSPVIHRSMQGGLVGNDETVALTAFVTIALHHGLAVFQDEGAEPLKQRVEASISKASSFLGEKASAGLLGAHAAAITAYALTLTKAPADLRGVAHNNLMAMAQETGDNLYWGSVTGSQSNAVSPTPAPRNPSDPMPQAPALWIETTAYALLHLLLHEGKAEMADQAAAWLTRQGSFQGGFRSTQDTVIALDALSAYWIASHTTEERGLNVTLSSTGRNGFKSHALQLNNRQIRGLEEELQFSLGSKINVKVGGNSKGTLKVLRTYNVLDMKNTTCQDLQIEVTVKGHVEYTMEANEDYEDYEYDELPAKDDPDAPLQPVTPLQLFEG

Experiment [2] addresses soluble human C3b (human) (UniProt P01024).

Consider CFI-HSA R557N (enzyme), for which, in experiment [1], the C4b Screen Ref Fold (fold vs CFI-HSA wild type) turned out to be 1.87. The iC3b Screen Ref Fold (fold vs CFI-HSA wild type) in experiment [2] stood at 0.05.
Take CFI-HSA R557P (enzyme): the C4b Screen Ref Fold (fold vs CFI-HSA wild type) in experiment [1] came out at 3. For the same substance, in experiment [2], the iC3b Screen Ref Fold (fold vs CFI-HSA wild type) was 0.04.
For CFI-HSA R557Q (enzyme), in that order: 2.12 and 0.08.
As to CFI-HSA R557S (enzyme), the C4b Screen Ref Fold (fold vs CFI-HSA wild type) in experiment [1] came to 1.11. In experiment [2], the iC3b Screen Ref Fold (fold vs CFI-HSA wild type) was 0.1.
With CFI-HSA R557T (enzyme), in experiment [1], the C4b Screen Ref Fold (fold vs CFI-HSA wild type) amounted to 1.63. In addition, the iC3b Screen Ref Fold (fold vs CFI-HSA wild type) in experiment [2] turned out to be 0.09.
For CFI-HSA R557V (enzyme), in that order: 2.23 and 0.21.
Taken in the same sequence, the figures for CFI-HSA R557W (enzyme) were 2.36 and 0.12.
Take CFI-HSA R557Y (enzyme): the C4b Screen Ref Fold (fold vs CFI-HSA wild type) in experiment [1] is 3.23. Further, the iC3b Screen Ref Fold (fold vs CFI-HSA wild type) in experiment [2] is 0.21.
For CFI-HSA S343G (enzyme), in that order: 0.92 and 1.32.
For CFI-HSA S527G (enzyme), in that order: 0.09 and 0.16.
For CFI-HSA T377G; E457G (enzyme), in that order: 4.38 and 2.31.
Regarding CFI-HSA T377G; E457G; E461Q (enzyme), in experiment [1], the C4b Screen Ref Fold (fold vs CFI-HSA wild type) came to 3.75. In addition, the iC3b Screen Ref Fold (fold vs CFI-HSA wild type) in experiment [2] stood at 2.27.
For “CFI-HSA T377G; E457G; E461Q; N531G (enzyme)”, in that order: 4.73 and 1.57.
For CFI-HSA T377G; E461Q (enzyme), in that order: 3.17 and 2.82.
For CFI-HSA T377G; N531G (enzyme), in that order: 4.53 and 2.34.
In the case of CFI-HSA V526G (enzyme), in experiment [1], the C4b Screen Ref Fold (fold vs CFI-HSA wild type) was found to be 0.03. Besides, the iC3b Screen Ref Fold (fold vs CFI-HSA wild type) in experiment [2] is -0.01.
For CFI-HSA V540G (enzyme), in that order: 0.01 and 0.03.
CFI-HSA W528G (enzyme): the C4b Screen Ref Fold (fold vs CFI-HSA wild type) in experiment [1] amounted to 0.01. Further, in experiment [2], the iC3b Screen Ref Fold (fold vs CFI-HSA wild type) is -0.05.
Turning to CFI-HSA Y408L; D425R; E530Y (enzyme), the C4b Screen Ref Fold (fold vs CFI-HSA wild type) in experiment [1] amounted to 1.05. Further, the iC3b Screen Ref Fold (fold vs CFI-HSA wild type) in experiment [2] came to 1.95.
Taken in the same sequence, the figures for “CFI-HSA Y408L; E457G; D425R; E530Y (enzyme)” were 1.68 and 1.74.
Taken in the same sequence, the figures for “CFI-HSA Y408L; E457G; E461Q; R462K; N531G; GGSSGG (SEQ ID NO: 6); CR1 (ccp15-17) (from UniProt P17927) (enzyme)” were 1.84 and 0.18.
Regarding “CFI-HSA Y408L; E457G; E461Q; R462K; N531G; R557A (enzyme)”, the C4b Screen Ref Fold (fold vs CFI-HSA wild type) in experiment [1] was determined as 3.22. For the same substance, the iC3b Screen Ref Fold (fold vs CFI-HSA wild type) in experiment [2] turned out to be 1.29.
Taken in the same sequence, the figures for “CFI-HSA Y408L; E457G; E461Q; R462K; N531G; R557K (enzyme)” were 4.01 and 1.14.
For “CFI-HSA Y408L; E457G; E461Q; R462K; N531G; ΔC-term (Δ558-PFISQYNV (SEQ ID NO: 14)-565) (enzyme)”, in that order: 1.67 and 0.24.
Take CFI-HSA Y408L; E457G; E530Y (enzyme): the C4b Screen Ref Fold (fold vs CFI-HSA wild type) in experiment [1] came to 2. Also, the iC3b Screen Ref Fold (fold vs CFI-HSA wild type) in experiment [2] was found to be 1.12.
For “CFI-HSA Y408L; E457G; N531G; D425R; E530Y (enzyme)”, in that order: 4.1 and 1.08.
“CFI-HSA Y408L; E457G; N531G; E530Y (enzyme)”: in experiment [1], the C4b Screen Ref Fold (fold vs CFI-HSA wild type) worked out at 4.16. Moreover, in experiment [2], the iC3b Screen Ref Fold (fold vs CFI-HSA wild type) was found to be 2.07.
On to “CFI-HSA Y408L; E457G; R462K; F464Y; N531G; GGSSGG (SEQ ID NO: 6); CR1 (ccp15-17) (from UniProt P17927) (enzyme)”, for which the C4b Screen Ref Fold (fold vs CFI-HSA wild type) in experiment [1] was 2.74. In addition, the iC3b Screen Ref Fold (fold vs CFI-HSA wild type) in experiment [2] was 0.02.
With CFI-HSA Y408L; E530Y (enzyme), in experiment [1], the C4b Screen Ref Fold (fold vs CFI-HSA wild type) came out at 0.33. Also, the iC3b Screen Ref Fold (fold vs CFI-HSA wild type) in experiment [2] was 1.93.
For “CFI-HSA Y408L; N531G; D425R; E530Y (enzyme)”, in that order: 2.99 and 2.08.
Take CFI-HSA Y408L; N531G; E530Y (enzyme): the C4b Screen Ref Fold (fold vs CFI-HSA wild type) in experiment [1] is 2.25. In addition, the iC3b Screen Ref Fold (fold vs CFI-HSA wild type) in experiment [2] turned out to be 2.11.
For CFI-HSA Y408L; N531G; R557A (enzyme), in that order: 3.77 and 0.77.
For “CFI-HSA Y408L; N531G; ΔC-term (Δ558-PFISQYNV (SEQ ID NO: 14)-565) (enzyme)”, in that order: 1.85 and 0.3.
Taken in the same sequence, the figures for CFI-HSA Y553A (enzyme) were 0.52 and 1.1.
With CFI-HSA Y553E (enzyme), the C4b Screen Ref Fold (fold vs CFI-HSA wild type) in experiment [1] is 0.51. In addition, in experiment [2], the iC3b Screen Ref Fold (fold vs CFI-HSA wild type) amounted to 0.38.
Taken in the same sequence, the figures for CFI-HSA Y553G (enzyme) were 0.48 and 0.88.
Regarding CFI-HSA Y553H (enzyme), in experiment [1], the C4b Screen Ref Fold (fold vs CFI-HSA wild type) is 1.56. In experiment [2], the iC3b Screen Ref Fold (fold vs CFI-HSA wild type) stood at 1.11.
For CFI-HSA Y553I (enzyme), in that order: 0.51 and 1.06.
For CFI-HSA Y553K (enzyme), in that order: 1.49 and 1.12.
For CFI-HSA Y553L (enzyme), in that order: 0.67 and 0.93.
Consider CFI-HSA Y553N (enzyme), for which the C4b Screen Ref Fold (fold vs CFI-HSA wild type) in experiment [1] worked out at 0.6. In addition, in experiment [2], the iC3b Screen Ref Fold (fold vs CFI-HSA wild type) was 0.63.
Take CFI-HSA Y553Q (enzyme): in experiment [1], the C4b Screen Ref Fold (fold vs CFI-HSA wild type) amounted to 0.77. The iC3b Screen Ref Fold (fold vs CFI-HSA wild type) in experiment [2] turned out to be 1.09.
Taken in the same sequence, the figures for CFI-HSA Y553R (enzyme) were 0.78 and 1.38.
Taken in the same sequence, the figures for CFI-HSA Y553S (enzyme) were 0.76 and 0.93.
For CFI-HSA Y553V (enzyme), in experiment [1], the C4b Screen Ref Fold (fold vs CFI-HSA wild type) turned out to be 0.37. Moreover, the iC3b Screen Ref Fold (fold vs CFI-HSA wild type) in experiment [2] stood at 1.1.
Taken in the same sequence, the figures for “CFI-HSA variant 420-DGNK (SEQ ID NO: 15)-424 --> GG (enzyme)” were 0.07 and 0.15.
For “CFI-HSA variant 514-MDANNVT (SEQ ID NO: 13)-520 --> NG (enzyme)”, in that order: 0.12 and 0.04.
In the case of CFI-HSA variant A328C; W468C (enzyme), the C4b Screen Ref Fold (fold vs CFI-HSA wild type) in experiment [1] was -0.06. Also, in experiment [2], the iC3b Screen Ref Fold (fold vs CFI-HSA wild type) was found to be 0.
Taken in the same sequence, the figures for “CFI-HSA variant A328C; W468C; K326Y; R327N (enzyme)” were 0.15 and 0.01.
Taken in the same sequence, the figures for CFI-HSA variant A361G (enzyme) were 0.84 and 0.64.
“CFI-HSA variant D425K; E457G; E461Q; N531G; R557A (enzyme)” returned a C4b Screen Ref Fold (fold relative to CFI-HSA wild type) in experiment [1] of 2.8. Besides, the iC3b Screen Ref Fold (fold relative to CFI-HSA wild type) in experiment [2] was determined as 0.08.
The substance “CFI-HSA variant D425R; Y408L; N531G; E457G; E461Q; R462K; F464Y; E416A (enzyme)” returned a C4b Screen Ref Fold (fold of CFI-HSA wild type) in experiment [1] of 3.88. Further, in experiment [2], the iC3b Screen Ref Fold (fold of CFI-HSA wild type) came out at 1.63.
Consider CFI-HSA variant D506A (enzyme), for which, in experiment [1], the C4b Screen Ref Fold (fold vs CFI-HSA wild type) turned out to be 0.02. In experiment [2], the iC3b Screen Ref Fold (fold vs CFI-HSA wild type) was 0.
Taken in the same sequence, the figures for CFI-HSA variant D506E (enzyme) were 0.01 and 0.
Regarding CFI-HSA variant D506V (enzyme), the C4b Screen Ref Fold (fold vs CFI-HSA wild type) in experiment [1] worked out at 0.06. Besides, in experiment [2], the iC3b Screen Ref Fold (fold vs CFI-HSA wild type) worked out at 0.

These data come from patent publication US20230038638A1, “COMPLEMENT FACTOR I-RELATED COMPOSITIONS AND METHODS” (published 2023).
